Patent publication US20180127476A1 (Janssen / Centocor, published 2018)
Numbered stars: 1 amine (or outer) side, 2 acyl side, 3 side chain; on linkers, the order of the positions; unused ones are H or OH. Bridge positions count the residues as written; N and C are the ends. Square brackets hold non-standard residues; d marks the D form. Side chains are listed from the residue outwards. * marks the point of attachment. m‑COPhCH2 = meta-toluoyl group on the Ile3 alpha-amine, its methyl linked by thioether to hCys31, O=C(c1cccc(C[*:3])c1)[*:2]; C18 diacid = O=C(O)CCCCCCCCCCCCCCCCC(=O)*; γGlu = O=C(O)[C@H](CCC(=O)[*:2])N[*:1]; Palmitoyl = CCCCCCCCCCCCCCCC(=O)*; hCys = N[C@@H](CCS)C(=O)O; AEEA = NCCOCCOCC(=O)O

T1: human NPY2R Gi-protein coupled receptor (human, UniProt P49146 1-381)
T1 sequence (looked up): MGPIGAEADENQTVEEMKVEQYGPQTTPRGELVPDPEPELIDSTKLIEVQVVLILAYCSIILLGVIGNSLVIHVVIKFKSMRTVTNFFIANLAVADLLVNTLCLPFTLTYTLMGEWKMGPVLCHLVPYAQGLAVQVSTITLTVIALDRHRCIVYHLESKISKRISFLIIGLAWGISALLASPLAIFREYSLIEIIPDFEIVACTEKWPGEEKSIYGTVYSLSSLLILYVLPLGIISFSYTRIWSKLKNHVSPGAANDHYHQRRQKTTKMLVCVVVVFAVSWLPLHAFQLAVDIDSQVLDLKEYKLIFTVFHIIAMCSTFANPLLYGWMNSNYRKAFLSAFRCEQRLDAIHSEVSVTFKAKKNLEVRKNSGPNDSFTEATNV


Molecular target: T1, human NPY2R Gi-protein coupled receptor
Test: cell-based or functional assay

Row | Y2R EC50 (nM), inhibition of forskolin-induced cAMP (hY2 assay) [nM] | Binder
1 | 4.4 | {m‑COPhCH2}-IEPEAPGEDASPEELNRYYASLRAYLNK([γGlu-Palmitoyl])[hCys]TRQRY-NH2 (bridge N-29; not fully specified (bridges)) [Cyclic PYY Analog SEQ ID NO:22]
2 | 1.75 | GISPEAPGEK([AEEA-AEEA-γGlu-C18 diacid])ASPEELNRYYASLRHYLNEVTRQRY-NH2 (lactam N-29; also: psi-(R35,Y36) reduced amide bond) [Cyclic PYY Analog SEQ ID NO:72]
3 | 0.49 | {m‑COPhCH2}-IAPEAPGEDASPEELNRYYASLRAYLNK([γGlu-Palmitoyl])[hCys]TRQRY-NH2 (bridge N-29; not fully specified (bridges)) [Cyclic PYY Analog SEQ ID NO:21]
4 | 0.02 | GISPEAPGEKASPEELNRYYASLRHYLNEVTRQRY-NH2 (lactam N-29; also: psi-(R35,Y36) reduced amide bond) [Cyclic PYY Analog SEQ ID NO:70]
